Results published in article PMC4596477, “Interaction of Myosin Phosphatase Target Subunit (MYPT1) with Myosin Phosphatase-RhoA Interacting Protein (MRIP): A Role of Glutamic Acids in the Interaction” (PLoS ONE, 2015).

What was measured:
[1] = GST-tag, expressed in bacteria, after affinity purification
Description: Sedimentation velocity was performed over a range of concentrations of MRIP^545-878 (1.5–13.6 μM), MRIP^724-878 (4.7–42.3 μM), and MRIP^724-837 (7.5–67.1 μM) (Fig 2A).
To elucidate the stoichiometries of the MRIP peptides, the SedAnal program was used for curve fitting (Fig 2B). […] Diffusion contains important information about the shape of the molecule and that information is used in the data analysis. The recovery of samples after centrifugation is essentially 99% of the loading materials. […] The root mean square deviation (RMSD) of the fit was 0.010. […] The RMSD of the fit was 0.008.
We expressed and purified the MRIP peptide (residues 545–929) and the full-length MRIP protein using a chitin-binding tag and a GST-tag, respectively in bacteria.

full-length MYPT1 = settings: immunoprecipitation and immunoblotting; ref [7],[11],[12]; cited from earlier work
From the text: It is, however, not clear which residues of MRIP are critical for its binding to MYPT1.

LR = experiment: SPR, MRIP^724-878 as analyte over immobilized LR; format: binding; settings: Biacore 3000, 25°C, analyte MRIP^724-878 (dimeric) 85.6–0.7 μM, LR immobilized (244.8 RU), nebulin-derived peptide reference, 50 mM potassium phosphate pH 7.4, 100 mM KCl, steady-state affinity, mean and standard deviation, 6 experiments
Description: Analytes CCLR, CC, LR: Interactions between analytes, CCLR (167–1 μM), CC (318–10 μM), and LR (569–5 μM) with immobilized ligand, MRIP^724-878 (1800 RU) after correction for nonspecific binding using G-actin (2230 RU). Shown is a representative out of 9 experiments for CCLR and 8 for LR in each, duplicates or triplicates. Insets show fittings of steady-state affinity. Ligand LR: Interaction of analyte, MRIP^724-878 (85.6–0.7 μM) with immobilized ligand, LR (244.8 RU) after correction for nonspecific binding using a nebulin-derived peptide (600 RU). Shown is a representative out of 6 experiments.
This could be explained by the fact that free, solution-based MRIP^724-878 might have preserved homodimers better than the amine coupled. Consequently, we speculated that the MRIP^724-878 dimer might have higher MYPT1-binding affinity than its monomer.
Binding analyses of SPR were conducted on a Biacore 3000 (GE Healthcare) at 25°C. Sensor chips and reagents for immobilization (1-ethyl-3-(3-dimethylaminopropyl) carbodiimide, N-hydroxyl-succinimide, and ethanolamine) were purchased from GE Healthcare. Peptides were immobilized onto a CM5 sensor chip at 232–5841 resonance units (RU) using amine coupling. Binding studies were done using two-fold serial dilutions of the peptides in 50 mM potassium phosphate buffer (pH 7.4) containing 100 mM KCl. […]

[2] = AUC of MYPT1 peptides alone (concentration dependence, self-association); format: physicochemical; settings: CC alone, 107 μM and 3-, 9-fold dilutions, MRIP^724-878 alone, 50 μM and 3-, pH 7.4, 20°C
From the text: To determine the minimal MRIP-binding region of MYPT1, AUC was employed to examine interactions between sub-domains of CCLR, CC (residues 924–990) and LR (residues 991–1030) with MRIP^724-878 (Fig 4A). CC is the putative coiled coil domain and LR contains 16 upstream amino acid residues (residues 991–1006) in addition to the leucine repeat (residues 1007–1028). MRIP^724-878 was chosen because of its good fit to a single component, single-species model. […] Global fitting of the mixture to a two-component model produced a good fit and the RMSD of the fit was 0.010 (Fig 4B; Fitting of CC).
Fig 4 LR contains sufficient residues for the MYPT1/MRIP interaction. […] CC; Concentration-normalized time derivative g(s*) plots of CC, MRIP^724-878, and equimolar mixtures of the two peptides: Black filled-in circles, an original CC alone (107 μM); dark gray filled-in circles, a 3-fold dilution of CC alone; light gray filled-in circles, a 9-fold dilution of CC alone; black filled-in triangles, an original MRIP^724-878 alone (50 μM); dark gray filled-in triangles, a 3-fold dilution of MRIP^724-878 alone; light gray filled-in triangles, a 9-fold dilution of MRIP^724-878 alone; a black line, an original equimolar mixture of MRIP^724-878/CC (50 μM each): a dark gray line, a 3-fold dilution of the mixture; a light gray line, a 9-fold dilution of the mixture. […]

CCLR = experiment: AUC interaction of MRIP peptides with MYPT1 peptide CCLR (residues 924–1030); format: binding; settings: equimolar mixtures (MRIP^545-878 14 μM each; MRIP^724-878 30 μM each; MRIP^724-837 67 μM each) and 3-, 9-fold dilutions, pH 7.4, 100 mM KCl, 20°C
Description: AUC was performed to examine the interactions of MRIP^545-878, MRIP^724-878, or MRIP^724-837 individually with the MYPT1 peptide (residues 924–1030) containing a putative coiled coil domain (CC) and the leucine repeat region (LR), designated as CCLR.
Fig 3 All MRIP peptides bind to the C-terminal region of MYPT1, CCLR (residues 924–1030). Concentration-normalized time derivative g(s*) graphs of the MRIP peptides by themselves and in equimolar mixtures: Lines, CCLR (30 μM); +, individual MRIP peptides by themselves (MRIP^545-878, 14 μM; MRIP^724-878, 50 μM; MRIP^724-837, 67 μM); black filled-in circles, original equimolar mixtures (MRIP^545-878, 14 μM each; MRIP^724-878, 30 μM each; MRIP^724-837, 67 μM each); open circles, 3-fold dilutions; gray filled-in circles, 9-fold dilutions.
The cDNA fragment encoding MRIP peptides were amplified using a full-length MRIP cDNA as a template with the following primer pairs: MRIP^545-878, 5’-[…]/5’[…]; MRIP^724-878, 5’-[…]/5’-[…]; MRIP^724-837, 5’-[…]/5’-[…]. The PCR products were ligated into pCR2.1-TOPO using the TA cloning system and sequenced in both directions. The IMPACT™ (Intein Mediated Purification with an Affinity Chitin-binding Tag) Kit (New England BioLabs) was used to express peptides in bacteria to obtain tag-free peptides. The PCR amplicon encoding MRIP peptides were fused in frame to the chitin binding domain of pTYB12 vector utilizing the NdeI/EcoRI restriction sites. The expression vectors for the MYPT1 peptides, CCLR (residues 924–1030), CC (residues 924–990), and LR (residues 991–1030) were constructed as described: In the reference literature, CCLR and LR were named CCLZ and LZ, respectively. Recombinant peptides were produced in Escherichia coli strain BL21 (DE3) and purified using chitin beads according to the manufacturer's protocol. For further purification, the eluent from chitin beads was loaded on a Vydac C8 reversed phase column and subjected to HPLC using an acetonitrile gradient. Purity and identity of the peptides were confirmed by polyacrylamide gel electrophoresis (PAGE) and mass spectrometry. […]

[3] = AUC sedimentation velocity of MRIP peptides alone (molar mass, sedimentation coefficient, oligomeric state); format: physicochemical
From the text: The RMSD of the fit was 0.008.
The cDNA fragment encoding MRIP peptides were amplified using a full-length MRIP cDNA as a template with the following primer pairs: MRIP^545-878, 5’-[…]/5’[…]; MRIP^724-878, 5’-[…]/5’-[…]; MRIP^724-837, 5’-[…]/5’-[…]. The PCR products were ligated into pCR2.1-TOPO using the TA cloning system and sequenced in both directions. The IMPACT™ (Intein Mediated Purification with an Affinity Chitin-binding Tag) Kit (New England BioLabs) was used to express peptides in bacteria to obtain tag-free peptides. The PCR amplicon encoding MRIP peptides were fused in frame to the chitin binding domain of pTYB12 vector utilizing the NdeI/EcoRI restriction sites. The expression vectors for the MYPT1 peptides, CCLR (residues 924–1030), CC (residues 924–990), and LR (residues 991–1030) were constructed as described: In the reference literature, CCLR and LR were named CCLZ and LZ, respectively. Recombinant peptides were produced in Escherichia coli strain BL21 (DE3) and purified using chitin beads according to the manufacturer's protocol. For further purification, the eluent from chitin beads was loaded on a Vydac C8 reversed phase column and subjected to HPLC using an acetonitrile gradient. Purity and identity of the peptides were confirmed by polyacrylamide gel electrophoresis (PAGE) and mass spectrometry. For the mutagenesis study of LR, the wild-type and mutant LR peptides were synthesized, purified by reverse-phase HPLC, and lyophilized to dryness at the peptide core in Boston Biomedical Research Institute.
Sedimentation velocity experiments were done on a Beckman Instruments Optima XL-I analytical ultracentrifuge equipped with Rayleigh optics. The cells were equipped with sapphire windows and 12 mm charcoal-filled Epon centerpieces. Apparent sedimentation coefficient distribution patterns were computed by the time derivative method. Peptides were dialyzed against 50 mM potassium phosphate buffer (pH 7.4) containing 100 mM KCl, and 1 mM DTT at 4°C overnight and then subjected to AUC at 50,000 rpm and 20°C. Molar mass was computed from sedimentation velocity profiles using SedAnal, which uses a nonlinear least-squares curve fitting algorithm to fit data to solutions of the differential equation (the Lamm equation) describing sedimentation. Fits were performed on time difference data to remove the time-independent systematic baseline components. Values of s and D produced by the fitting procedure were substituted into the Svedberg equation to obtain the molar mass of the protein, M: M=RT/(1−ν¯ρ)s20,wo/D20,wo where ρ is the density of the buffer and ν¯ is the partial specific volume of the protein. Sednterp was employed to compute values of ρ and ν¯ from the amino acid sequence.

B1: GST-tagged full-length MRIP: full-length MRIP protein with GST-tag, expressed in bacteria (protein, UniProt Q6WCQ1 1-1025, looked up)
chain: MSAAKENPCRKFQANIFNKSKCQNCFKPRESHLLNDEDLTQAKPIYGGWLLLAPDGTDFDNPVHRSRKWQRRFFILYEHGLLRYALDEMPTTLPQGTINMNQCTDVVDGEGRTGQKFSLCILTPEKEHFIRAETKEIVSGWLEMLMVYPRTNKQNQKKKRKVEPPTPQEPGPAKVAVTSSSSSSSSSSSIPSAEKVPTTKSTLWQEEMRTKDQPDGSSLSPAQSPSQSQPPAASSLREPGLESKEEESAMSSDRMDCGRKVRVESGYFSLEKTKQDLKAEEQQLPPPLSPPSPSTPNHRRSQVIEKFEALDIEKAEHMETNAVGPSPSSDTRQGRSEKRAFPRKRDFTNEAPPAPLPDASASPLSPHRRAKSLDRRSTEPSVTPDLLNFKKGWLTKQYEDGQWKKHWFVLADQSLRYYRDSVAEEAADLDGEIDLSACYDVTEYPVQRNYGFQIHTKEGEFTLSAMTSGIRRNWIQTIMKHVHPTTAPDVTSSLPEEKNKSSCSFETCPRPTEKQEAELGEPDPEQKRSRARERRREGRSKTFDWAEFRPIQQALAQERVGGVGPADTHEPLRPEAEPGELERERARRREERRKRFGMLDATDGPGTEDAALRMEVDRSPGLPMSDLKTHNVHVEIEQRWHQVETTPLREEKQVPIAPVHLSSEDGGDRLSTHELTSLLEKELEQSQKEASDLLEQNRLLQDQLRVALGREQSAREGYVLQATCERGFAAMEETHQKKIEDLQRQHQRELEKLREEKDRLLAEETAATISAIEAMKNAHREEMERELEKSQRSQISSVNSDVEALRRQYLEELQSVQRELEVLSEQYSQKCLENAHLAQALEAERQALRQCQRENQELNAHNQELNNRLAAEITRLRTLLTGDGGGEATGSPLAQGKDAYELEVLLRVKESEIQYLKQEISSLKDELQTALRDKKYASDKYKDIYTELSIAKAKADCDISRLKEQLKAATEALGEKSPDSATVSGYDIMKSKSNPDFLKKDRSCVTRQLRNIRSKSVIEQVSWDT
modifications: full-length GST tag
For B1, the precipitation [1] was “precipitated after affinity purification”.

B2: MRIP: Myosin phosphatase-RhoA interacting protein (protein, UniProt Q6WCQ1 1-1025, looked up)
chain: B1 chain
modifications: full-length
In the case of B2, the “interaction with full-length MYPT1” value (full-length MYPT1) is given as “interacts with the full-length MYPT1”.

B3: MRIP^724-878: recombinant tag-free MRIP peptide, residues 724–878; CC2-CC4 (protein)
chain: CERGFAAMEETHQKKIEDLQRQHQRELEKLREEKDRLLAEETAATISAIEAMKNAHREEMERELEKSQRSQISSVNSDVEALRRQYLEELQSVQRELEVLSEQYSQKCLENAHLAQALEAERQALRQCQRENQELNAHNQELNNRLAAEITRLRT
modifications: left off: chitin-binding domain (IMPACT kit, pTYB12), N-terminal, cleaved
notes: recombinant tag-free MRIP peptide, residues 724–878; CC2-CC4
For B3, the Kd (LR) was 40 ± 19 µM, the “concentration dependence of g(s*) curves” value [2] was “superimposable, indicating concentration-independence” and the “binding to CCLR (shift in g(s*) curves)” value (CCLR) was “bind to CCLR”. The molar mass ([3]; AUC sedimentation velocity, SedAnal global fit to single component, single-species ideal model, 4.7–42.3 μM, 50 mM potassium phosphate pH 7.4, 100 mM KCl, 1 mM DTT, 20°C, CL 0.95) was 38.2±0.3 kDa, the “oligomeric state in solution” value ([3]; AUC sedimentation velocity, pH 7.4, 100 mM KCl, 20°C) was “forms a tight dimer in solution” and the sedimentation coefficient ([3]; AUC sedimentation velocity, single component, single-species ideal model, 4.7–42.3 μM, pH 7.4, 100 mM KCl, 20°C, CL 0.95) was 2.007±0.002 S. The “concentration dependence of g(s*) curves” value ([3]; AUC, MRIP^545-878 1.5–13.6 μM, MRIP^724-878 4.7–42.3 μM, MRIP^724-837 7.5–67.1 μM, pH 7.4, 20°C) was “no-concentration dependence and the presence of one species in solution”.
